Laboratory results as given in the DeepSol protein solubility set.

Experiment: soluble on expression in E. coli; label from the status in PepcDB or PDB records

Soluble on expression in E. coli, soluble:
AHHHHHHGSEIDKGLAKFGDSLINFLYSLALTEFLGKPTGDRVPNASLAIALELTGLSKNLRRVDKHAKGDYAEALIAKAWLMGLISEREAVEIIKKNLYPEVLDFSKKKEAIGRALAPLLVIISERLYSSQV
MAVTAQAARRKERVLCLFDVDGTLTPARQKIDPEVAAFLQKLRSRVQIGVVGGSDYCKIAEQLGDGDEVIEKFDYVFAENGTVQYKHGRLLSKQTIQNHLGEELLQDLINFCLSYMALLRLPKKRGTFIEFRNGMLNISPIGRSCTLEERIEFSELDKKEKIREKFVEALKTEFAGKGLRFSRGGMISFDVFPEGWDKRYCLDSLDQDSFDTIHFFGNETSPGGNDFEIFADPRTVGHSVVSPQDTVQRCREIFFPETAHEA
MSLAVTLADVARRAGVSLATASRVLNGSARAVSDEMRARVTAAARELHYVPNAHAQALARAATQTVGVIVHDVSDPYFAEILRGIQRSAADAGRLMIVCNTFRDPQRELEYVHLLQKQRVEAIILAGSGLDDRAYCRSMTERLDSFASMGGRVAVIGRHNIAADAVVPDNVGGARALAHYLLDLGHRSFGIIDGPALLTTSRDRRSGFVQALQAGGITLPPDAIIPGDFTRDGGAQAAIRLLERFPSITAIFALNDVMAIGALAALRERGITVPDQMSIVGFDDIPIAADVTPALTTMRVPMSQLGSEALALALSAEDTLRTIHLPTEMIVRQSTAEGHHHHHH
SPLELELCPGRWVGGQHPCFIIAEIGQNHQGDLDVAKRMIRMAKECGADCAKFQKSELEFKFNRKALDRPYTSKHSWGKTYGEHKRHLEFSHDQYRELQRYAEEVGIFFTASGMDEMAVEFLHELNVPFFKVGSGDTNNFPYLEKTAKKGRPMVISSGMQSMDTMKQVYQIVKPLNPNFCFLQCTSAYPLQPEDVNLRVISEYQKLFPDIPIGYSGHETGIAISVAAVALGAKVLERHITLDKTWKGSDHSASLEPGELAELVRSVRLVERALGSPTKQLLPCEMACNEKLGKSVVAKVKIPEGTILTMDMLTVKVGEPKGYPPEDIFNLVGKKVLVTVEEDDTIMEELVDNHGKKIKS
MAHHHHHHMRHLYGPAPGCVLLSFDFNQMELRVLAHLSGDELLIKHLSSEYDVLSAMTRHITGLSDDEQVPPHLRETVKVVVYGLFYGMGLATMKERVKILMDSAHSVPSSQRKFTADTLLRAFHQRYPAAGKFLTRARIRAFHEARCVTLTGINDLSSEKDGNRRRQHSIARILQGSSSTLFQSAMVKVHERRHDIVPNLPAAPFALVLCIHDELIYSVVEGYVDVVARKIKGIMVEQAQVFSLRVPLRVSVKVGKTFGSLEKLDVP
ANAFLEELRPGSLERECKEEQCSFEEAREIFKDAERTKLFWISYSDGDQCASSPCQNGGSCKDQLQSYICFCLPAFEGRNCETHKDDQLICVNENGGCEQYCSDHTGTKRSCRCHEGYSLLADGVSCTPTVEYPCGKIPILEKRNASKPQGR
ENVLTQSPAIMSPSPGEKVTMTCRARSSVSSSYLHWYQQKSGASPKLWIYSTSNLASGVPARFSGSGSGTSYSLTISSVEAEDTATYYCQQYSGNPWTFGGGTKLEIKRADAAPTVSIFPPSSEQLTSGGASVVCFLNNFYPKDINVKWKIDGSERQNGVLNSWTDQDSKDSTYSMSSTLTLTKDEYERHNSYTCEATHKTSTSPIVKSFNRNEC

Soluble on expression in E. coli, not soluble:
MFNIMLVKFVVIFALILASCRVEADNTSVLPEGFVDAAQRSTHTNNWAVLVDASRFWFNYRHVANVLSIYRSVKRLGIPDSQIILMIADDMACNARNPRPGQVYNNANQHINVYGDDVEVDYRGYEVTVENFVRLLTGRTQNGTARSKKLLSDAGSNVLIYLTGHGGDGFLKFQDSEEITSQELADGIQQMWEKKRYNELFFMVDTCQAASLYEKFTSPNVLAVASSLVGEDSLSHHVDPSIGVYMIDRYTYYALEFLEKVQPFSKRTIGEFLQVCPKRVCISTVGVRKDLYPRDPHKVPITDFFGAIRPTRVSTDRINVTLANEELEHHHHHH
QSWYGGFKDTAELVRGDSNECIELTDDQLSYLAVLWAARCAVGFQEMKLTRLAKETRLSHEVVQKITQIFISQGIVSVFEEYGPSGQKDVAWVQLTEHGCGLAKNLERVSSHS
ELDWFARRGLKEPNLAELLDLVALGSVADVVPLDANNRILVHQGLARIRAGRARPGLRALLEVAGRPPVRITSTDLGFILGPRLNAAGRLDDMSLGIECLLCDDEALARDMAVQLDQLNQDRKAIEQGMQREALAQLKELSLEQLPFGLCLFDADWHQGVIGILASRLKERYHRPTIAFADAGDGSLKGSARSIPGFHIRDALDAVAARHPGLISKFGGHAMAAGLSLPQENFGAFSAAFDAEVRRQLAEEDLAGRLLSDGQLSIQEFHLELARALRQAGPWGQHFPEPMFHGVFQLVQQRIVGERHLKLVLKSECGSLQLDGIAFNIDREQWPNPTVRWAELAYKLDVNEFRGQESVQL
MGSDKIHHHHHHMLSRTADHLFWMSRYTERAENTARMLNVSYETSLLPQSADVAQESWLGLLSISELIPAYTARHGEVTREGVLEFMVRDGDNPSSILSCLRAARENARAVRGALTTEIWETQNQTWLELHRQLQGRDFERDPGAFFEWVKYRSHLSRGVTLGTMLQDEAFHFLRLGTFLERADNTARLLDVKFHAVQSDFHGSAMRERGRAAPQEFDFYHWSAILRSVSAFEVYRKVYRDVITPERVADLLMLRADMPRSLHASLREVADNLAVVANDQSAETQRKAGRLLADLRYGRIDEILATGLHAYLTQFLDRVNDLGAGISRDFLVPVPA
MGSDKIHHHHHHMKYVVVSGGVISGIGKGVLASSTGMLMKTLGLKVTSIKIDPYMNIDAGTMSPLEHGECFVLDDGGETDLDLGNYERYLGVTLTKDHNITTGKIYSHVIAKERKGDYLGKTVQIVPHLTNAIQDWIERVAKIPVDDTGMEPDVCIIELGGTVGDIESAPFVEALRQFQFKVGKENFALIHVSLVPVIHGEQKTKPTQAAIKGLRSLGLVPDMIACRCSETLDKPTIDKIAMFCHVGPEQVVNVHDVNSTYHVPLLLLEQKMIDYLHARLKLDEISLTEEEKQRGLELLSKWKATTGNFDESMETVKIALVGKYTNLKDSYLSVIKALEHSSMKCRRKLDIKWVEATDLEPEAQESNKTKFHEAWNMVSTADGILIPGGFGVRGTEGMVLAARWARENHIPFLGVCLGLQIATIEFTRSVLGRKDSHSAEFYPDIDEKNHVVVFMPEIDKETMGGSMRLGLRPTFFQNETEWSQIKKLYGDVSEVHERHRHRYEINPKMVDELENNGLIFVGKDDTGKRCEILELKNHPYYIATQYHPEYTSKVLDPSKPFLGLVAASAGILQDVIEGKYDLEAGENKFNF
PKNKAKKNPVRFYKNNFFMLKDKVNNIYVYVYEHKKNDNYNDLYLPRDNVFPYLGRVYINNDNGFIINDVYFSSERIGVKNYYDKDNPILINKHSSEGNRSYGYEPETFAEIKFKTKLDNISKSQIEYIIEFKPYDSIVDYVGDNIKKTLREPVKIEGTFEIIKEDEAEIIRLHNADIFGLYNVESILFSSERIFSGNVFNFDYLFINGKEKINSSINGVKEFSDEFLKDKINENKNIVESYVKESKQRHWKSLMDESILNYIDNYADYYNELKEFKSFNILYYDDKTISLYKRVSKLEDLKLAEIDNMFMTFELESQKLISPYIKDFVNDSEALLKKYNAPSDFYSNIDSLIFGITDSFIIIMNEKGCGKIFIDYKNIKEYINKDHYLAYLFN
MAPKAEKKPSEKAPKADKKITKEGGSERKKKTKKSTETYKIYLFKVLKQVHPDIGISGKAMGIMNSFINDTFEKIALESSRLARYNKKPTITSREIQTAVRLVLPGELAKHAVSEGTKAVTKFTSS
DYIVEKLNMTKMYDIFSQYLPPQVFINDDSVVHLVRNSIYYKKMRGKHDLVILAGDFQGTTQEAQYELSYQVLQIAKEIGVSMIYTLGGYSIGKIVDKPRVLGAVTDKNLVADLEKNGVVFPKGE
IGDFHYGIGASMSYLNTEVVNVNQAYQEYDYLYTKGNRIGQMYGLEAIGFFNSQQEINNSPQQTFSDVAPGDVKYKDQNGDNRIDEKDIVKMFGSSVPRFYFGFNLNFSYKRLELSADFQGMTGVTVSLLNSPLYSPLVSNGNISNTFLNEEISWTPENKTNATMPRLTTQENLNNYRASSLWYRDGSFLKLRNLLVAYTFPKSQTRFADLKVFVQGTNLFSLDNIHFADPEQLGIAYPSTRSYWAGIKLNF
MKATVSTIDNRGNLGKVLKDVTSKDSIKGYTVAAATAGVAQGLNYNPSAMGLDAKSLQTVAVKVTADALIKTAVYGGSFKDNLASAAAGTAASIGGAYGAGKIGDLGLTEGGLAKIALHAGLGGLLSEAMGGDFRTGAIAGGANELLVGVLGDKLEHHHHHH
MPEGPAAVLAPRRKTRQLQVGTVGVGSDFPVSVQSMCTTKTHDVNATLQQIAELTASGCDIVRVACPRQEDADALATIAKKSQIPVIADIHFQPRYIFAAIEAGCAAVRVNPGNIKEFDGRVKEVAKAAGDAGIPIRIGVNAGSLDPRLMQKYGKATPEALVESALWEAGLFEEHGFGDIKISVKHNDPVIMVEAYRQLAAQCNYPLHLGVTEAGPAFQGTIKSAVAFGALLADGIGDTIRVSLSAPPAEEIKVGTQILQSLNLRPRKLEIVSCPSCGRAQVDVYTLADEVTAGLEGMEIPLRVAVMGCVVNGPGEAREADLGVASGNGKGQIFVKGKVIKTVPEAQIVETLIEEAMRIAEEMEGDATSGSPVVTVS
MIRLPLLPTVIKNLFKKPATNPFPKTEPVPVPEDFRGKLVYNVDKCVGCRMCVTVCPAGVFVYLPEIRKVTLWIGRCVMCKQCVDVCPTAALQMSDEFLLASYDKYDAKLIYLTPEEAEDIKKKLEEANKAKAEKQASK
MTDQRRNVYFFHKQDQETNEQARSLTQLAEEHGFTVVNQHSDANIIASIGGDGTFLQAVRKTNFRDDCLYVGITKKGKAHLYCDFHSDEREKMVDAMTFEQIEVRKYPLIEVTVDQASPFHCLNEVSIRSSIIKTFVMDVLIDDLHFETFRGDGMIISTPTGSTAYNKSVAGAVVDPLLPCMQVSELASLNNNTYRTLGSPFVLSSDRKLTLRVVQDGNEHPIIGLDNEALSTRNVKTIEIKLSNKKIKTVKLKDNSFWEKVKRTFLLEHHHHHH
MGHHHHHHSHMNNQKVVAVLLQECRALLPSELRTLIQEAKEMKWPFVPEKWQYKQAVGPEDKTNLKDVIGAGLQQLLASLRASILARDCAAAAAIVFLVDRFLYGLDVSGKLLQVAKGLHKLQPATPIAPQVVIRQARISVNSGSHPAKHSM
